# Test results taken from paper doi:10.1101/2022.01.10.475532 (bioRxiv, 2022).
# B1: MAb S3H3 (IgG) (antibody, V domains shown)
# VH: QVQLQQPGAELVRPGASVKLSCKASGYSFTRFWMNWVKQRPGQGLEWIGMIHPSDSETRLNQKFKDKATLTVDKSSTTAYMQLSSPTSEDSAVYYCARKDYDYDAWFAYWGQGTLVTVSA
# VL: DIVLTQSPASLAVSLGQRATISCRASKSVSASVYSYMHWYQQKPGQPPKLLIYLASSLESGVPARFSGSGSGTDFTLNIHPVEEEDAATYYCHHSRELPPAFGGGTKLEIK
# Target: recombinant S trimer protein of the WT SARS-CoV-2 strain (SARS-CoV-2 WT (Wuhan-Hu-1), UniProt P0DTC2, stabilised)
# Assay: ELISA
binder,measurement,value
B1,binding result,binds
